Measurements published in patent US20250243278A1.

Legend:
[1] = target: recombinant human B7H3 extra cellular domain (ECD) protein (human) (UniProt Q5ZPR3); test: Octet binding assay
[2] = target: human B7H3 on A498 cells (human) (UniProt Q5ZPR3); test: flow cytometry, whole cell binding to B7H3+ A498 cells, MFI
[3] = target: human B7H3 on A498 cells (human) (UniProt Q5ZPR3); test: as above; remark: listed apart in the source
[4] = target: human B7H3 on A498 cells (human) (UniProt Q5ZPR3); test: flow cytometry, whole cell binding to B7H3+ A498 cells, MFI (FITC)

recombinant human B7H3 extra cellular domain (ECD) protein (human), sequence (Q5ZPR3 29-461): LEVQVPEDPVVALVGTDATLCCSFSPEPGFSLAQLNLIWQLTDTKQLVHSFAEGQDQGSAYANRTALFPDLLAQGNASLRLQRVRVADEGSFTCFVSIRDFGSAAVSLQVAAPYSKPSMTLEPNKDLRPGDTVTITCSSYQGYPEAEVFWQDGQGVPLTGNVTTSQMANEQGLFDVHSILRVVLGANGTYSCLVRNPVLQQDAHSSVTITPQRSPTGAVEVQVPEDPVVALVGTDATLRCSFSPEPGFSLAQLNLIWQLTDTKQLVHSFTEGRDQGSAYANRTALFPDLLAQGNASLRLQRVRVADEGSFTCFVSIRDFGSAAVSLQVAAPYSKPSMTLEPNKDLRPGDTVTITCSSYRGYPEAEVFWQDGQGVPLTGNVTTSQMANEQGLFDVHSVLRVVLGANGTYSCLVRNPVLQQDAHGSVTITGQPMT
human B7H3 on A498 cells (human), sequence (Q5ZPR3 29-534 limits assumed): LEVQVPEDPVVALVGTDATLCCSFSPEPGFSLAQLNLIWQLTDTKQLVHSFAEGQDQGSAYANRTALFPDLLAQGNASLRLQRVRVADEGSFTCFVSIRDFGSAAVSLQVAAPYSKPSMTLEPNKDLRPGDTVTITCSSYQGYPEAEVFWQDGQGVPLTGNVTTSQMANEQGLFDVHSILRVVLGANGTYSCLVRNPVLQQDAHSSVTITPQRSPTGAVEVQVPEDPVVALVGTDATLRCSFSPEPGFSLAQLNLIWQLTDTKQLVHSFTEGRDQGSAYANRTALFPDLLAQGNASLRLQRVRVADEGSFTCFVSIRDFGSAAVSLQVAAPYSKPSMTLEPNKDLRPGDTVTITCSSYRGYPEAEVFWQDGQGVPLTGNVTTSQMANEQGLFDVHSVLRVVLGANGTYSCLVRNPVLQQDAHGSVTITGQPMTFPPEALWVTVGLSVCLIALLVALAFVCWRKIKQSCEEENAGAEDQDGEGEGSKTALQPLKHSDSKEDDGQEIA

Kd [1]: 0.739 nM | koff [1]: 0.000199 s⁻¹ | kon [1]: 269000 M⁻¹ s⁻¹ | EC50 [2]: 7.94 nM | EC50 [3]: 2.18 nM | EC50 [4]: 0.697 nM
Substance: Reference Ab 1 (an enoblituzumab analog) (antibody)
